In patent US20230272049A1 (published 2023):
Positions count from the first letter of the chain named.

T1: HPV16 E7 peptide on HLA-A*02:01 (human)
T1 peptide: YMLDLQPET

B1: E7-11-455 (TCR, V domains shown)
Valpha: QKEVEQDPGPLSVPEGAIVSLNCTYSNSAFQYFMWYRQYSRKGPELLMYTYSSGNKEDGRFTAQVDKSSKYISLFIRDSQPSDSATYLCAMAGSGNTGKLIFGQGTTLQVKP
Vbeta: DTGVSQDPRHKITKRGQNVTFRCDPISEHNRLYWYRQTLGQGPEFLTYFQNEAQLEKSRLLSDRFSAERPKGSFSTLEIQRTEQGDSAMYLCASSSSTKNIQYFGAGTRLSVL
B2: E7-11-176 (TCR, V domains shown)
Valpha: DQQVKQNSPSLSVQEGRISILNCDYTNSMFDYFLWYKKYPAEGPTFLISISSIKDKNEDGRFTVFLNKSAKHLSLHIVPSQPGDSAVYFCAAKNSNSGYALNFGKGTSLLVTP
Vbeta: not shown
B3: E7-11-28 (TCR, V domains shown)
Valpha: GQQVMQIPQYQHVQEGEDFTTYCNSSTTLSNIQWYKQRPGGHPVFLIQLVKSGEVKKQKRLTFQFGEAKKNSSLHITATQTTDVGTYFCAGIGSSNTGKLIFGQGTTLQVKP
Vbeta: EPEVTQTPSHQVTQMGQEVILRCVPISNHLYFYWYRQILGQKVEFLVSFYNNEISEKSEIFDDQFSVERPDGSNFTLKIRSTKLEDSAMYFCAITGRVSYEQYFGPGTRLTVT
B4: E7-11-194 (TCR, V domains shown)
Valpha: B3 Valpha with I92L
Vbeta: B3 Vbeta with I94T, V98A

Target: T1, HPV16 E7 peptide on HLA-A*02:01
Assay: multimer staining

Binding result, recognises:
B1
B2
B3
B4
